According to patent publication US20240182536A1 (MURAL ONCOLOGY, published 2024):
Where a chain is given by its changes, count along the chain named. Names and notes keep the numbering of the source. Like-named read-outs stand apart in the source and are kept apart here.

T1: IL-18 receptors on HEK-Blue IL-18 reporter cells (InvivoGen) (UniProt Q13478 19-541; O95256 20-599)
T1 sequence (looked up) 1: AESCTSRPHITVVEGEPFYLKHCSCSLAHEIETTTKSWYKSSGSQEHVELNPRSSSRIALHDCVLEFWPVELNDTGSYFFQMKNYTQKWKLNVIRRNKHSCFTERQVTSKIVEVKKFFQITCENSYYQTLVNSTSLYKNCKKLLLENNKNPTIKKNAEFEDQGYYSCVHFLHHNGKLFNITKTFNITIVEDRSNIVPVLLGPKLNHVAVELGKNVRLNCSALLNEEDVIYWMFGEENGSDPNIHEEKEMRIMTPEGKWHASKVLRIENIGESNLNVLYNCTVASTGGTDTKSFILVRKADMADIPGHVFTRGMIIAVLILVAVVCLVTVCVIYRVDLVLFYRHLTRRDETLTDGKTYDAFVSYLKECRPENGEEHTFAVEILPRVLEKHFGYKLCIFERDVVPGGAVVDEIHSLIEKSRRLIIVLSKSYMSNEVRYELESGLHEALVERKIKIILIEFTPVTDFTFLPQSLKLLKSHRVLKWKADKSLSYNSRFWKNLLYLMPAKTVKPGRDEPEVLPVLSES
T1 sequence (looked up) 2: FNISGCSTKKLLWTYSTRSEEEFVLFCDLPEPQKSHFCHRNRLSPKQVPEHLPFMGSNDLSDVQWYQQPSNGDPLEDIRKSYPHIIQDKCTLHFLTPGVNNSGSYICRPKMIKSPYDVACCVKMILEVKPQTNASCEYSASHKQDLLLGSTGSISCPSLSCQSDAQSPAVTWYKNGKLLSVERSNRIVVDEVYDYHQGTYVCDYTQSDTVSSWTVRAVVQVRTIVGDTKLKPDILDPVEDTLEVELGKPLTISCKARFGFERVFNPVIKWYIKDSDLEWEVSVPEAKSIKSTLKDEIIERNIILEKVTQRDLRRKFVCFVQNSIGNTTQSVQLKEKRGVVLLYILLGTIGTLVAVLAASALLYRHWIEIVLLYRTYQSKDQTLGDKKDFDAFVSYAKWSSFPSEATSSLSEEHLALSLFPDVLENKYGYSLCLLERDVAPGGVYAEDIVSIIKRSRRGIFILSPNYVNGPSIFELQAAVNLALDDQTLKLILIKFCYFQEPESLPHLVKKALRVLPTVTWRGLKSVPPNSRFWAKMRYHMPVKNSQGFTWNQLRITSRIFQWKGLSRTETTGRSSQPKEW

T2: human IL-18 binding protein (IL-18BP) (human, UniProt O95998 31-194)
T2 sequence (looked up): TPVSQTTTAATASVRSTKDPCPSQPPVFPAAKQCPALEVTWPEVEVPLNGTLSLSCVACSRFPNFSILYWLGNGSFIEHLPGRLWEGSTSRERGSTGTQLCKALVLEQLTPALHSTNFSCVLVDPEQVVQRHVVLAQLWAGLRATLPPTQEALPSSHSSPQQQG

T3: IL-18 receptor (IL-18Rα and IL-18Rβ) (UniProt Q13478 19-541; O95256 20-599, limits assumed)
T3 sequence (looked up) 1: T1 sequence (looked up) 1
T3 sequence (looked up) 2: T1 sequence (looked up) 2

T4: human IL-18 receptor alpha (IL-18Rα) (human, UniProt Q13478 19-329, limits assumed)
T4 construct: also called hu IL-18Ra; IL-18R alpha
T4 sequence (looked up): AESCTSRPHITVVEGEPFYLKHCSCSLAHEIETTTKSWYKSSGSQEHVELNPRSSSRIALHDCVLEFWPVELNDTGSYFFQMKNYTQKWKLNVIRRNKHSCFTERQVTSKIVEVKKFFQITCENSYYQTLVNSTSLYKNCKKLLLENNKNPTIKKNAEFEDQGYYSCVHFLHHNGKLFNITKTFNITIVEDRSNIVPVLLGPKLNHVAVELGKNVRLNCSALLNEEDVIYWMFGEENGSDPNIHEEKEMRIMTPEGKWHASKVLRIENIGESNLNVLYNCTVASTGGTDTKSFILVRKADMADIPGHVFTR

T5: human IL-18R alpha/beta pair (IL-18Rab) (human, UniProt Q13478 19-329; O95256 20-356)
T5 construct: also called hu IL-18Rab
T5 sequence (looked up) 1: T4 sequence (looked up)
T5 sequence (looked up) 2: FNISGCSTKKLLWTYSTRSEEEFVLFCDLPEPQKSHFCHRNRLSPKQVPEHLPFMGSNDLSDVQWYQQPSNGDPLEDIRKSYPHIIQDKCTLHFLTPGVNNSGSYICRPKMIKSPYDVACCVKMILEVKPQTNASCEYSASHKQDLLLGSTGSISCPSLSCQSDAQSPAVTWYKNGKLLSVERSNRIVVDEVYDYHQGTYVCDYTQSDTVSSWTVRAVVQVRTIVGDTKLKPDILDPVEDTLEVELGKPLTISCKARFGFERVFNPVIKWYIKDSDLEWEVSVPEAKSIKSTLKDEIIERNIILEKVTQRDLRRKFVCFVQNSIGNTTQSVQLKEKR

T6: human IL-18 binding protein (human, UniProt O95998 31-194)
T6 sequence (looked up): T2 sequence (looked up)

T7: IL-18 receptors on HEK-Blue IL-18 reporter cells (UniProt Q13478 19-541; O95256 20-599, limits assumed)
T7 sequence (looked up) 1: T1 sequence (looked up) 1
T7 sequence (looked up) 2: T1 sequence (looked up) 2

B1: Comparator 1 (human IL-18 variant M51K, K53S, Q56L, P57A, M60L, S105D, D110S, N111R) (ligand)
chain: YFGKLESKLSVIRNLNDQVLFIDQGNRPLFEDMTDSDCRDNAPRTIFIISKYSDSLARGLAVTISVKCEKISTLSCENKIISFKEMNPPDNIKDTKSDIIFFQRDVPGHSRKMQFESSSYEGYFLACEKERDLFKLILKKEDELGDRSIMFTVQNED
B2: Comparator 1-monospecific KiH (Fc fusion)
chain: B1 chain
B3: IL-18 variant G3E, K53S (ligand)
chain: YFEKLESKLSVIRNLNDQVLFIDQGNRPLFEDMTDSDMRDNAPRTIFIISMYSDSQPRGMAVTISVKSEKISTLSSENKIISFKEMNPPDNIKDTKSDIIFFQRSVPGHDNKMQFESSSYEGYFLASEKERDLFKLILKKEDELGDRSIMFTVQNED
B4: IL-18 variant G3R, K53S (ligand)
chain: B3 chain with E3R
B5: IL-18 variant G3V, M60K, D157E (ligand)
chain: B3 chain with E3V, S53K, M60K, D157E
B6: IL-18 variant G3T, M60K, D157E (ligand)
chain: B3 chain with E3T, S53K, M60K, D157E
B7: G3T/M60K-monospecific KiH (Fc fusion)
chain: B3 chain with E3T, S53K, M60K
B8: G3T/E6K/K53A-monospecific KiH (Fc fusion)
chain: B3 chain with E3T, E6K, S53A
B9: G3V/M60K-monospecific KiH (Fc fusion)
chain: B3 chain with E3V, S53K, M60K

What was measured:
[1] = target: T1, IL-18 receptors on HEK-Blue IL-18 …; assay: cell-based or functional assay
[2] = target: T2, human IL-18 binding protein (IL-18BP); assay: cell-based or functional assay
[3] = target: T3, IL-18 receptor (IL-18Rα and IL-18Rβ); assay: cell-based or functional assay
[4] = target: T1, IL-18 receptors on HEK-Blue IL-18 …; assay: cell-based or functional assay; remark: listed apart in the source
[5] = target: T2, human IL-18 binding protein (IL-18BP); assay: cell-based or functional assay; remark: listed apart in the source
[6] = target: T4, human IL-18 receptor alpha (IL-18Rα); assay: Octet BLI
Method: (§1) Octet 96red instrument was used to determine affinities of IL18 proteins to BP or receptors. 5-10 ug/ml analyte proteins were used for loading on Sartorius tips (AHC or SA). […] 120-180 s loading, 200 s association and 800 s dissociation were used for kinetics. 3-7 data points were used to calculate affinities.

[7] = target: T5, human IL-18R alpha/beta pair (IL-18Rab); assay: Octet BLI
Method: as §1

[8] = target: T2, human IL-18 binding protein (IL-18BP); assay: Octet BLI
Method: as §1

[9] = target: T3, IL-18 receptor (IL-18Rα and IL-18Rβ); assay: cell-based or functional assay; remark: listed apart in the source
[10] = target: T2, human IL-18 binding protein (IL-18BP); assay: cell-based or functional assay; remark: listed apart in the source
[11] = target: T1, IL-18 receptors on HEK-Blue IL-18 …; assay: cell-based or functional assay; remark: listed apart in the source
[12] = target: T2, human IL-18 binding protein (IL-18BP); assay: cell-based or functional assay; remark: listed apart in the source
[13] = target: T6, human IL-18 binding protein; assay: cell-based or functional assay
[14] = target: T7, IL-18 receptors on HEK-Blue IL-18 …; assay: cell-based or functional assay
[15] = target: T2, human IL-18 binding protein (IL-18BP); assay: Octet BLI; remark: listed apart in the source
[16] = target: T1, IL-18 receptors on HEK-Blue IL-18 …; assay: cell-based or functional assay; remark: listed apart in the source
[17] = target: T2, human IL-18 binding protein (IL-18BP); assay: cell-based or functional assay; remark: listed apart in the source
[18] = target: T4, human IL-18 receptor alpha (IL-18Rα); assay: Octet BLI; remark: listed apart in the source
[19] = target: T5, human IL-18R alpha/beta pair (IL-18Rab); assay: Octet BLI; remark: listed apart in the source
[20] = target: T2, human IL-18 binding protein (IL-18BP); assay: Octet BLI; remark: listed apart in the source

| Binder | HEK-Blue Activity Assay Ec50 (pM), -hu IL-18BP [1] | HEK-Blue Activity Assay Ec50 (pM), +300 nM hu IL-18BP [2] | EC50 pM, IFN gamma expression in PBMCs [3] | HEK-Blue EC50 pM, NO BP (50 nM BP run) [4] | HEK-Blue EC50 pM, NO BP (300 nM BP run) [4] | Fold Change (BP/NO BP), 50 nM BP [5] | Fold Change (BP/NO BP), 300 nM BP [5] | HEK-Blue EC50 pM, +50 nM BP [5] | HEK-blue EC50 (pM) + 300 nM BP [5] | Kd [6] | Kd [7] | EC50 pM, IFN gamma expression in PBMCs, no BP [9] | EC50 pM, IFN gamma expression in PBMCs, + 300 nM BP [10] | HEK-Blue Ec50 (pM), -IL-18BP [11] | HEK-Blue Ec50 (pM), +IL-18BP (50 nM) [12] | HEK-blue EC50 (pM) + 300 nM IL-18BP [13] | HEK-blue EC50 (pM) - IL-18BP [14] | HEK-Blue Activity Assay Ec50 (pM), -hu IL-18BP [16] | HEK-Blue Activity Assay Ec50 (pM), +50 nM hu IL-18BP [17] | Kd [18] | other results |
| --- | --- | --- | --- | --- | --- | --- | --- | --- | --- | --- | --- | --- | --- | --- | --- | --- | --- | --- | --- | --- | --- |
| B1 | 0.08 pM | 0.09 pM | 0.093 pM | 0.02 pM | 0.13 pM | 2.5 fold | 0.83 fold | 0.04 pM | 0.11 pM | 16 nM | 0.43 nM | 1.22 pM | 1.82 pM | 0.15 pM | 0.22 pM |  |  |  |  |  | binding result [8]: no binding |
| B2 |  |  |  |  |  |  |  |  |  |  |  |  |  |  |  | 0.03 pM | 0.03 pM |  |  |  |  |
| B3 |  |  | 517 pM |  |  |  |  |  |  |  |  |  |  | 2.69 pM | 4.41 pM |  |  | 2.69 pM | 4.41 pM | 8920 nM | Kd [15]: 396 nM; koff [15]: 0.0311 s⁻¹; kon [15]: 78500 M⁻¹ s⁻¹; Kd [19]: 0.31 nM; Kd [20]: 396 nM |
| B4 |  |  | 73.8 pM |  |  |  |  |  |  |  |  |  |  | 0.31 pM | 1.84 pM |  |  | 0.31 pM | 1.84 pM | 197 nM | Kd [15]: 4 nM; koff [15]: 0.00143 s⁻¹; kon [15]: 356000 M⁻¹ s⁻¹; Kd [19]: 0.09 nM; Kd [20]: 4.03 nM |
| B5 | 0.16 pM | 0.6 pM |  | 0.08 pM | 0.16 pM | 1.74 fold | 3.74 fold | 0.14 pM | 0.6 pM | 43 nM | 0.13 nM | 6.61 pM | 13 pM |  |  |  |  |  |  |  | Kd [8]: 87 nM |
| B6 | 0.75 pM | 2.77 pM |  | 0.62 pM | 0.75 pM | 1.05 fold | 3.69 fold | 0.65 pM | 2.77 pM | 693 nM | 0.1 nM | 127 pM | 323 pM |  |  |  |  | 0.62 pM | 0.65 pM | 693 nM | Kd [19]: 0.1 nM; Kd [20]: 686 nM; Kd [8]: 686 nM |
| B7 |  |  |  |  |  |  |  |  |  |  |  |  |  |  |  | 2.64 pM | 0.27 pM |  |  |  |  |
| B8 |  |  |  |  |  |  |  |  |  |  |  |  |  |  |  | 1.16 pM | 0.04 pM |  |  |  |  |
| B9 |  |  |  |  |  |  |  |  |  |  |  |  |  |  |  | 2.01 pM | 0.06 pM |  |  |  |  |
